Laboratory results as given in US20160108118A1 (METABOLIC ENGINEERING LABORATORIES, published 2016).

T1: Human CXCL10-His (human, UniProt P02778 22-98)
T1 construct: also called hCXCL10; recombinant human CXCL10 protein; not shown: His tag (named CXCL10-His)
T1 sequence (looked up): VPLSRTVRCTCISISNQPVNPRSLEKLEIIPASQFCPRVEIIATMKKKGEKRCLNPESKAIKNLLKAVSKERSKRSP


Legend:
[1] = biological target: T1, Human CXCL10-His; test: phage ELISA
[2] = biological target: T2, His (control coat of Table 2); test: phage ELISA
T2 construct: Not explained in the text

[3] = biological target: T3, α-myc (anti-myc antibody coated as second antigen); test: phage ELISA
T3 construct: Coated at 100 ng per well beside CXCL10 in the phage ELISA; in effect a control of scFv display; also called a-myc

[4] = biological target: T1, Human CXCL10-His; test: phage ELISA, CXCL10/a-myc
Experimental: Two types of antigens such as CXCL10 and α-myc were put into a 96-well immunoplate at 100 ng per well and coated with a coating buffer at 4° C. for 16 hours, and wells were blocked with skim milk (4%) dissolved in PBS. Each well was washed with 0.2 ml of PBS-Tween20 (0.05%), and the monoclonal scFv-phages obtained by the third panning (each 100 scFv-phage) were added at 100 μl per well, and allowed to be reacted at room temperature for 2 hours. Each well was washed again with 0.2 ml of PBS-Tween20 (0.05%) four times, and a secondary antibody, anti-M13-HRP, was diluted at 1/2000 and allowed to be reacted at room temperature for 1 hour. Each well was washed with 0.2 ml of PBS-Tween20 (0.05%) and allowed to develop a color to measure an absorbance at 490 nm.

[5] = biological target: T1, Human CXCL10-His; test: ELISA, IgG titrated from 50 nM on coated CXCL10
Experimental: Specifically, ELISA was carried out by coating a recombinant human CXCL10 protein with a coating buffer at 100 ng per well in a 96-well immunoplate at 4° C. for 16 hours, and a reaction in each well was blocked with skim milk (4%) dissolved in PBS. 0.2 ml of PBS-Tween20 (0.05%) was added to wash each well, monoclonal antibodies were sequentially diluted from 50 nM by ½, added at 100 μl each to an antigen-coated plate, and allowed to be reacted at room temperature for 2 hours. 0.2 ml of PBS-Tween20 (0.05%) was added again to wash each well three times, and a secondary antibody, anti-human Fc-HRP, was diluted at 1:4000 and allowed to be reacted at room temperature for 50 minutes. The plate was washed with 0.2 ml of PBS-Tween20 (0.05%), and a substrate solution prepared by adding an OPD table to a PC buffer was added to the plate at 100 μl per well to allow color development for 5 minutes, followed by measuring an absorbance at 490 nm using a spectrophotometer. The ELISA result was analyzed using a Graphpad prism ver. 4 software (CA 92037: Graphpad Software Inc., USA).

Binder | OD490 [1] | OD490 [2] | OD490 [3] | Ratio [4] | Kd [5]
scFv-phage clone 10E (scFv, also called E10 scFv) scFv: QVQLVQSGGGVVQPGRSLRLSCAASGFTFNSYGMHWVRQAPGKGPEWVAVISYDGNSKYYADSVKGRFTISRDNSKTTLYLQMNSLRSEDTAVYYCARDSGSYLDWYFDLWGRGTLVTVSSGLGGLGGGGSGGGGSGGSSGVGSQFVLTQPPSVSGAPGQRVTISCTGSRSNFGAGHDVHWYQQLPGTAPKLLIYGNNNRPSGVPDRFSGSKSGTSASLAITGLQAEDEADYYCQSYDSRLGVVFGGGTKLTVL | 3.05 | 0.051 | 0.307 | 9.95 | 
scFv-phage clone 9E (scFv) QVQLVESGGGVVQPGRSLRLSCAASGFTFSSYGMHWVRQAPGKGLEWVAVISYDGNNKYYVDSVKGRFTISRDNSKNTLYLQMNSLRSEDTAVYYCARDSGSYLDWYFDLWGRGTLVTVSSQPPSVSVAPGKTARIACGGGNIGDKSVHWYQQKPGQAPVLVIFYDSDRPSGIPKRLSGSNSGNTATLTISRVEAGDEGDYYCQVWDSSSDRPVFGGGTKLTVLG | 2.96 |  |  | 1.48 | 
scFv-phage clone 12D (scFv) QVQLVQSGGGVVQPGRSLRLSCVASAFTFSRYGMHWVRQAPGKGLEWVALISYDGSSEYYADSVKGRFNISRDNSKNTVYLQMNSLRAEDTAVYYCVKDGLAAKLGHWGQGTLVTVSSQAPSLSVSPGQTANIICSGDNLRTKYVSWYQQKPGQSPLLVIYQDTRRPSGIPARFSGSNSGNTATLTISGTQTERESTYYCMTWDVDTTSMIFGGGTKLTVLG | 3.02 |  |  | 3.4 | 
anti-CXCL10 antibody 9E (whole IgG) (antibody, V domains shown, Whole-form IgG) VH: QVQLVESGGGVVQPGRSLRLSCAASGFTFSSYGMHWVRQAPGKGLEWVAVISYDGNNKYYVDSVKGRFTISRDNSKNTLYLQMNSLRSEDTAVYYCARDSGSYLDWYFDLWGRGTLVTVSS VL: QPPSVSVAPGKTARIACGGGNIGDKSVHWYQQKPGQAPVLVIFYDSDRPSGIPKRLSGSNSGNTATLTISRVEAGDEGDYYCQVWDSSSDRPVFGGGTKLTVLG |  |  |  |  | 6.1 pM
anti-CXCL10 antibody 10E (whole IgG) (antibody, V domains shown, also called E10) VH: QVQLVQSGGGVVQPGRSLRLSCAASGFTFNSYGMHWVRQAPGKGPEWVAVISYDGNSKYYADSVKGRFTISRDNSKTTLYLQMNSLRSEDTAVYYCARDSGSYLDWYFDLWGRGTLVTVSS VL: QPPSVSGAPGQRVTISCTGSRSNFGAGHDVHWYQQLPGTAPKLLIYGNNNRPSGVPDRFSGSKSGTSASLAITGLQAEDEADYYCQSYDSRLGVVFGGGTKLTVLG |  |  |  |  | 7 pM
scFv-phage clone 10D (scFv) scFv: QVQLVQSGGGVVQPGRSLRLSCAASGFTFSSYGMHWVRQAPGKGLEWVAVISYDGSNKYYADSVKGRFTISRDNSKNTLYLQMNSLRSEDTAVYYCARDKRAAFDIWGQGKMVTVSSGLGGLGGGGSGGGGSGGSSGVGSSYELTQAPSLSVSPGQTANIICSGDNLRTKYVSWYQQKPGQSPLLVIYQDTRRPSGIPARFSGSNSGNTATLTISGTQTERESTYYCMTWDVDTTSMIFGGGTKLTVL | 2.85 | 0.178 |  | 0.945 | 
anti-CXCL10 antibody 12D (whole IgG) (antibody, V domains shown, Whole-form IgG) VH: QVQLVQSGGGVVQPGRSLRLSCVASAFTFSRYGMHWVRQAPGKGLEWVALISYDGSSEYYADSVKGRFNISRDNSKNTVYLQMNSLRAEDTAVYYCVKDGLAAKLGHWGQGTLVTVSS VL: QAPSLSVSPGQTANIICSGDNLRTKYVSWYQQKPGQSPLLVIYQDTRRPSGIPARFSGSNSGNTATLTISGTQTERESTYYCMTWDVDTTSMIFGGGTKLTVLG |  |  |  |  | 4.7 pM
